Experimental data published in paper PMC9482650, “Quantitative fragmentomics allow affinity mapping of interactomes” (Nature Communications, 2022).

T1: MPDZ_10, O75970
T1 sequence (O75970 1624-1722, limits assumed, looked up): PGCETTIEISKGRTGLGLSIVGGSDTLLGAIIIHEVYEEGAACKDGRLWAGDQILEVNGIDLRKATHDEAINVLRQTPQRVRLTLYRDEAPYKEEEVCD

T2: PARD3B_1, Q8TEW8
T2 sequence (Q8TEW8 196-299, limits assumed, looked up): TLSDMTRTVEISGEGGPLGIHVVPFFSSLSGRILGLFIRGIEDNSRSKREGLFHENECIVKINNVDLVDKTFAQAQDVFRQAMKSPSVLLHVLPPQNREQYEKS

T3: PDZRN3_1, Q9UPQ7
T3 sequence (Q9UPQ7 244-349, limits assumed, looked up): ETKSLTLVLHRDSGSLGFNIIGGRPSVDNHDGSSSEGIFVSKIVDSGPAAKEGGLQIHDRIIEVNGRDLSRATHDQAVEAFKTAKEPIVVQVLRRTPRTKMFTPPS

T4: APBA1_2, Q02410
T4 sequence (Q02410 742-832, limits assumed, looked up): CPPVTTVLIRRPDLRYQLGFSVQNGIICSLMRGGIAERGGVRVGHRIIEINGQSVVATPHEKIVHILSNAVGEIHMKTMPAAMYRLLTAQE

T5: SNTG2, Q9NY99
T5 sequence (Q9NY99 68-166, limits assumed, looked up): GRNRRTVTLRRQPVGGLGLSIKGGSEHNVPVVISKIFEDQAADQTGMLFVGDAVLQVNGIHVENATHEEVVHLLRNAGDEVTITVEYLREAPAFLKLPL

T6: PTPN13_1, Q12923
T6 sequence (Q12923 1088-1188, limits assumed, looked up): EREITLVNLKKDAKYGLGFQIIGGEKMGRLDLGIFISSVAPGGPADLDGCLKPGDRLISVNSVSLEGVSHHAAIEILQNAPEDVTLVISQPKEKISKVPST

T7: DLG3_3, Q92796
T7 sequence (Q92796 374-475, limits assumed, looked up): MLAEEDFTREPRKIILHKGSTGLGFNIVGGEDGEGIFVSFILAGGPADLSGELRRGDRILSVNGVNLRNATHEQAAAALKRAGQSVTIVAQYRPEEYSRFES

T8: NHERF3_1, Q5T2W1
T8 sequence (Q5T2W1 4-100, limits assumed, looked up): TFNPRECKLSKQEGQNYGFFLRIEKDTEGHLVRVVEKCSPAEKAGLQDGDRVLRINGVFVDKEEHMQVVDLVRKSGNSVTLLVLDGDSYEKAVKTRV

T9: APBA2_1, Q99767
T9 sequence (Q99767 563-664, limits assumed, looked up): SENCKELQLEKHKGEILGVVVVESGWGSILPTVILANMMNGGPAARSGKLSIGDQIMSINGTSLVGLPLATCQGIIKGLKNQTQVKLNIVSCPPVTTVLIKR

T10: TIAM2, Q8IVF5
T10 sequence (Q8IVF5 885-986, limits assumed, looked up): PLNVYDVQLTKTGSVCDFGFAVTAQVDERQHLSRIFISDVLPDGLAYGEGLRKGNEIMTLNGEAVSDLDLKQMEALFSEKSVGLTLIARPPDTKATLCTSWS


What follows are binders tested against T1, MPDZ_10, O75970 (assay: holdup assay). Settings: plain residues with an end cap or a label only (N-terminal biotin on a linker: ado-ado).
Set-up: key: below the threshold = too weak to quantify, mostly under pKd 3.1 to 4
In the case of GNSVLKSTQF [SLC22A12, Q96S37], the pKd is reported as “below the threshold”.

These binders were tested against FRMPD2_2, Q68DX3 (assay: holdup assay). Settings: plain residues with an end cap or a label only (N-terminal biotin on a linker: ado-ado).
FRMPD2_2, Q68DX3, sequence (Q68DX3 944-1038): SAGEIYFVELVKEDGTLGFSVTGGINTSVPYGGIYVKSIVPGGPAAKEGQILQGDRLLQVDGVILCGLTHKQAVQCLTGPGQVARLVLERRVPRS
Set-up: key: below the threshold = too weak to quantify, mostly under pKd 3.1 to 4
GNSVLKSTQF [SLC22A12, Q96S37] was tested, and the pKd was “below the threshold”.

What follows are binders tested against FRMPD2_3, Q68DX3 (assay: holdup assay). Settings: plain residues with an end cap or a label only (N-terminal biotin on a linker: ado-ado).
FRMPD2_3, Q68DX3, sequence (Q68DX3 1073-1166): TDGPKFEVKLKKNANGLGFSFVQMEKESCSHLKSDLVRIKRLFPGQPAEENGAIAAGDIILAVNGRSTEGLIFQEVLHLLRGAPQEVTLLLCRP
Set-up: key: below the threshold = too weak to quantify, mostly under pKd 3.1 to 4
GNSVLKSTQF [SLC22A12, Q96S37] was tested, and the pKd was “below the threshold”.

These binders were tested against LAP2, Q96RT1 (assay: holdup assay). Settings: plain residues with an end cap or a label only (N-terminal biotin on a linker: ado-ado).
LAP2, Q96RT1, sequence (Q96RT1 other isoform, or with tags, fused parts or gaps): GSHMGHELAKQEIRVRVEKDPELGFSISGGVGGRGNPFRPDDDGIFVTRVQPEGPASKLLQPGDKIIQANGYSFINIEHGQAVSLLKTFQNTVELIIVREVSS
Set-up: key: below the threshold = too weak to quantify, mostly under pKd 3.1 to 4
GNSVLKSTQF [SLC22A12, Q96S37] was tested, and the pKd was “below the threshold”.

The binders below were run against GRIP2_4, Q9C0E4 (assay: holdup assay). Settings: plain residues with an end cap or a label only (N-terminal biotin on a linker: ado-ado).
GRIP2_4, Q9C0E4, sequence (Q9C0E4 446-548): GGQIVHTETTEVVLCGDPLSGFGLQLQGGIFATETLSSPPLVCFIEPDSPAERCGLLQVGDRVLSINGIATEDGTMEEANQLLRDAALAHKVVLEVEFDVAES
Set-up: key: below the threshold = too weak to quantify, mostly under pKd 3.1 to 4
For GNSVLKSTQF [SLC22A12, Q96S37], the pKd was “below the threshold”.

Each binder was assayed against GRIP2_3, Q9C0E4 (assay: holdup assay). Settings: plain residues with an end cap or a label only (N-terminal biotin on a linker: ado-ado).
GRIP2_3, Q9C0E4, sequence (Q9C0E4 238-339): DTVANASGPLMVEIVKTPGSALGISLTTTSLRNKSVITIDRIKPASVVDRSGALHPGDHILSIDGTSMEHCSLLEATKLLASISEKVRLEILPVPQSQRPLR
Set-up: key: below the threshold = too weak to quantify, mostly under pKd 3.1 to 4
In the case of GNSVLKSTQF [SLC22A12, Q96S37], the pKd is reported as “below the threshold”.

Each binder was assayed against T2, PARD3B_1, Q8TEW8 (assay: holdup assay). Settings: plain residues with an end cap or a label only (N-terminal biotin on a linker: ado-ado).
Set-up: key: below the threshold = too weak to quantify, mostly under pKd 3.1 to 4
GNSVLKSTQF [SLC22A12, Q96S37] showed a pKd of 4.21.

Each binder was assayed against T3, PDZRN3_1, Q9UPQ7 (assay: holdup assay). Settings: plain residues with an end cap or a label only (N-terminal biotin on a linker: ado-ado).
Set-up: key: below the threshold = too weak to quantify, mostly under pKd 3.1 to 4
For GNSVLKSTQF [SLC22A12, Q96S37], the pKd was “below the threshold”.

The binders below were run against LNX1_2, Q8TBB1 (assay: holdup assay). Settings: plain residues with an end cap or a label only (N-terminal biotin on a linker: ado-ado).
LNX1_2, Q8TBB1, sequence (Q8TBB1 371-470): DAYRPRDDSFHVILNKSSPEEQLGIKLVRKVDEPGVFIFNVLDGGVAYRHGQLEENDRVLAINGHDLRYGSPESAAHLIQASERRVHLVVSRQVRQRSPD
Set-up: key: below the threshold = too weak to quantify, mostly under pKd 3.1 to 4
With GNSVLKSTQF [SLC22A12, Q96S37] the pKd was “below the threshold”.

These binders were tested against T4, APBA1_2, Q02410 (assay: holdup assay). Settings: plain residues with an end cap or a label only (N-terminal biotin on a linker: ado-ado).
Set-up: key: below the threshold = too weak to quantify, mostly under pKd 3.1 to 4
With GNSVLKSTQF [SLC22A12, Q96S37] the pKd was “below the threshold”.

The binders below were run against T5, SNTG2, Q9NY99 (assay: holdup assay). Settings: plain residues with an end cap or a label only (N-terminal biotin on a linker: ado-ado).
Set-up: key: below the threshold = too weak to quantify, mostly under pKd 3.1 to 4
In the case of GNSVLKSTQF [SLC22A12, Q96S37], the pKd is reported as “below the threshold”.

Each binder was assayed against HTRA2, O43464 (assay: holdup assay). Settings: plain residues with an end cap or a label only (N-terminal biotin on a linker: ado-ado).
HTRA2, O43464, sequence (O43464 355-458): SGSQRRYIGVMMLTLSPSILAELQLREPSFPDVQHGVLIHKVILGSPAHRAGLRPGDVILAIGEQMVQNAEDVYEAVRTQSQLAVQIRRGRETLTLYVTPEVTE
Set-up: key: below the threshold = too weak to quantify, mostly under pKd 3.1 to 4
For GNSVLKSTQF [SLC22A12, Q96S37], the pKd was “below the threshold”.

Each binder was assayed against GRIP2_6, Q9C0E4 (assay: holdup assay). Settings: plain residues with an end cap or a label only (N-terminal biotin on a linker: ado-ado).
GRIP2_6, Q9C0E4, sequence (Q9C0E4 648-740): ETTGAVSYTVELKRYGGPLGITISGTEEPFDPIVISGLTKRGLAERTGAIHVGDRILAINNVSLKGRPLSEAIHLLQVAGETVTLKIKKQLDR
Set-up: key: below the threshold = too weak to quantify, mostly under pKd 3.1 to 4
In the case of GNSVLKSTQF [SLC22A12, Q96S37], the pKd is reported as “below the threshold”.

These binders were tested against Inadl_2, Q8NI35 (assay: holdup assay). Settings: plain residues with an end cap or a label only (N-terminal biotin on a linker: ado-ado).
Inadl_2, Q8NI35, sequence (Q8NI35 238-335): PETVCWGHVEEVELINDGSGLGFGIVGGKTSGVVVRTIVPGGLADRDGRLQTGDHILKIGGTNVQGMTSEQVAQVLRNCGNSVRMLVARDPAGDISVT
Set-up: key: below the threshold = too weak to quantify, mostly under pKd 3.1 to 4
GNSVLKSTQF [SLC22A12, Q96S37] was tested, and the pKd was “below the threshold”.

The binders below were run against TJP1_3, Q07157 (assay: holdup assay). Settings: plain residues with an end cap or a label only (N-terminal biotin on a linker: ado-ado).
TJP1_3, Q07157, sequence (Q07157 416-512): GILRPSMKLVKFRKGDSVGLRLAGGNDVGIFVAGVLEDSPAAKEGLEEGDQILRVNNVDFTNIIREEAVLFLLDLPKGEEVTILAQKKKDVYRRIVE
Set-up: key: below the threshold = too weak to quantify, mostly under pKd 3.1 to 4
With GNSVLKSTQF [SLC22A12, Q96S37] the pKd was “below the threshold”.

The binders below were run against MAGI1_1, Q96QZ7 (assay: holdup assay). Settings: plain residues with an end cap or a label only (N-terminal biotin on a linker: ado-ado).
MAGI1_1, Q96QZ7, sequence (Q96QZ7 1-106): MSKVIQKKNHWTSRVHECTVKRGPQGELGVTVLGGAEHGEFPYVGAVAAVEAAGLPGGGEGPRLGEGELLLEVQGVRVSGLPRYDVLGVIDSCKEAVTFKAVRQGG
Set-up: key: below the threshold = too weak to quantify, mostly under pKd 3.1 to 4
For GNSVLKSTQF [SLC22A12, Q96S37], the pKd was “below the threshold”.

The binders below were run against CASK, O14936 (assay: holdup assay). Settings: plain residues with an end cap or a label only (N-terminal biotin on a linker: ado-ado).
CASK, O14936, sequence (O14936 487-570): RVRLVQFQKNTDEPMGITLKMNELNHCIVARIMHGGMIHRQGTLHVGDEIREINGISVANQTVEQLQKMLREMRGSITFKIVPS
Set-up: key: below the threshold = too weak to quantify, mostly under pKd 3.1 to 4
In the case of GNSVLKSTQF [SLC22A12, Q96S37], the pKd is reported as “below the threshold”.

Each binder was assayed against T6, PTPN13_1, Q12923 (assay: holdup assay). Settings: plain residues with an end cap or a label only (N-terminal biotin on a linker: ado-ado).
Set-up: key: below the threshold = too weak to quantify, mostly under pKd 3.1 to 4
With GNSVLKSTQF [SLC22A12, Q96S37] the pKd was “below the threshold”.

The binders below were run against T7, DLG3_3, Q92796 (assay: holdup assay). Settings: plain residues with an end cap or a label only (N-terminal biotin on a linker: ado-ado).
Set-up: key: below the threshold = too weak to quantify, mostly under pKd 3.1 to 4
For GNSVLKSTQF [SLC22A12, Q96S37], the pKd was “below the threshold”.

What follows are binders tested against LNX1_1, Q8TBB1 (assay: holdup assay). Settings: plain residues with an end cap or a label only (N-terminal biotin on a linker: ado-ado).
LNX1_1, Q8TBB1, sequence (Q8TBB1 261-371): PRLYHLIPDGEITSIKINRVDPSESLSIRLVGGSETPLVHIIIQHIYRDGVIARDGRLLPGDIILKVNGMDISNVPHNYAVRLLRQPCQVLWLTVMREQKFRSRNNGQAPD
Set-up: key: below the threshold = too weak to quantify, mostly under pKd 3.1 to 4
In the case of GNSVLKSTQF [SLC22A12, Q96S37], the pKd is reported as “below the threshold”.

The binders below were run against GRIP2_5, Q9C0E4 (assay: holdup assay). Settings: plain residues with an end cap or a label only (N-terminal biotin on a linker: ado-ado).
GRIP2_5, Q9C0E4, sequence (Q9C0E4 544-642): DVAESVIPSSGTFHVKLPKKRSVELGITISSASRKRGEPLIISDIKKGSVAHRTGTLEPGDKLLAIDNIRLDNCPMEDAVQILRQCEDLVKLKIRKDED
Set-up: key: below the threshold = too weak to quantify, mostly under pKd 3.1 to 4
With GNSVLKSTQF [SLC22A12, Q96S37] the pKd was “below the threshold”.

What follows are binders tested against T8, NHERF3_1, Q5T2W1 (assay: holdup assay). Settings: plain residues with an end cap or a label only (N-terminal biotin on a linker: ado-ado).
Set-up: key: below the threshold = too weak to quantify, mostly under pKd 3.1 to 4
GNSVLKSTQF [SLC22A12, Q96S37] gave a pKd of 6.17.

The binders below were run against PARD3_3, Q8TEW0 (assay: holdup assay). Settings: plain residues with an end cap or a label only (N-terminal biotin on a linker: ado-ado).
PARD3_3, Q8TEW0, sequence (Q8TEW0 582-685): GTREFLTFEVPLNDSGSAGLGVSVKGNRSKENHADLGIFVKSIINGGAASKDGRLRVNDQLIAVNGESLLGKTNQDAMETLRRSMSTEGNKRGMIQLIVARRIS
Set-up: key: below the threshold = too weak to quantify, mostly under pKd 3.1 to 4
With GNSVLKSTQF [SLC22A12, Q96S37] the pKd was “below the threshold”.

The binders below were run against T9, APBA2_1, Q99767 (assay: holdup assay). Settings: plain residues with an end cap or a label only (N-terminal biotin on a linker: ado-ado).
Set-up: key: below the threshold = too weak to quantify, mostly under pKd 3.1 to 4
GNSVLKSTQF [SLC22A12, Q96S37] was tested, and the pKd was “below the threshold”.

The binders below were run against GORASP1, Q9BQQ3 (assay: holdup assay). Settings: plain residues with an end cap or a label only (N-terminal biotin on a linker: ado-ado).
GORASP1, Q9BQQ3, sequence (Q9BQQ3 1-208): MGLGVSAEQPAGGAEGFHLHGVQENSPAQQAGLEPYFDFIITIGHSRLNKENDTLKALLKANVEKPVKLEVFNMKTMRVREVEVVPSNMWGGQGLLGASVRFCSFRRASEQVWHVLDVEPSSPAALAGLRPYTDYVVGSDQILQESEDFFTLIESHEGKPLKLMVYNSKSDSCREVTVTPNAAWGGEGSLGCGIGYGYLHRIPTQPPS
Set-up: key: below the threshold = too weak to quantify, mostly under pKd 3.1 to 4
GNSVLKSTQF [SLC22A12, Q96S37] was tested, and the pKd was “below the threshold”.

Each binder was assayed against NHERF2_2, Q15599 (assay: holdup assay). Settings: plain residues with an end cap or a label only (N-terminal biotin on a linker: ado-ado).
NHERF2_2, Q15599, sequence (Q15599 142-238): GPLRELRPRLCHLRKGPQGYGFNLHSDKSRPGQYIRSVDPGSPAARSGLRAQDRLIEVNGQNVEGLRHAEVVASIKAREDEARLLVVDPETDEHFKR
Set-up: key: below the threshold = too weak to quantify, mostly under pKd 3.1 to 4
GNSVLKSTQF [SLC22A12, Q96S37] was tested, and the pKd was 4.47.

Each binder was assayed against T10, TIAM2, Q8IVF5 (assay: holdup assay). Settings: plain residues with an end cap or a label only (N-terminal biotin on a linker: ado-ado).
Set-up: key: below the threshold = too weak to quantify, mostly under pKd 3.1 to 4
GNSVLKSTQF [SLC22A12, Q96S37] gave a pKd of 4.13.
